The values that follow come from the supplement of paper PMC9170038.

The subject of this data set is MS2 coat protein. The data set is described as follows: apparent KD of MS2 coat protein; designed switch direction (-1 OFF switch, 1 ON switch): 1; higher = weaker reporter binding. In a few lines: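 Three titration conditions were used: no input, 200 uM small-molecule ligand, and an oligonucleotide input. In each, SNAP-549-labelled MS2 coat protein was raised from 0.7 or 1.5 nM, doubling, to 3 µM over designed RNA switches transcribed on Illumina chips by stalled E. coli RNA polymerase. Curve fits of normalised cluster fluorescence gave values whose per-design median over clusters is the apparent KD.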

Where [1] appears, read: input ligand: microRNA oligo, concentration not stated.
Where [2] appears, read: Eterna round: R95, input ligand: FMN 200 uM.
The mark [3] stands for this setting: Eterna round: R95, input ligand: microRNA oligo, concentration not stated.
Where [4] appears, read: Eterna round: R95, input ligand: none.

Take “GUACAGAUUAUAGGAUAUCACGUCGAAUAGACGUGAGAAGGAUAAUCCCACAUGAAUAUUAAUACAUGAGGAUCACCCAUGUAC [SSNG1/18-B1] (Eterna round: R96, puzzle: Same State NG 1)”: the “apparent KD of MS2 coat protein” value came to 16.8 nM (input ligand: FMN 200 uM), 19.8 nM under setting [1] and 20.4 nM (input ligand: none).

Take “GUACAUAUUAUAGGAUAUCACGUCGUUUAGACGUGAGAAGGAUAAUCCCACAUGAAUAUUAAUACAUGAGGAUCACCCAUGUAC [SSNG1/18-A3] (Eterna round: R96, puzzle: Same State NG 1)”: the “apparent KD of MS2 coat protein” value reads like this: (input ligand: FMN 200 uM) 64.2 nM; under setting [1], 48 nM; (input ligand: none) 63.9 nM.

With “GUACUCAUGUAAGGAUAUGCAGCCGUUUCGGCUGCAGAAGGUACUAUAAUACAUGAGGAUCACCCAUGUCUCUAUAAUUUAGUG [salish99_SSNG1_r04_901] (Eterna round: R96, puzzle: Same State NG 1)”, the “apparent KD of MS2 coat protein” value was found to be 70.6 nM (input ligand: FMN 200 uM), 34.5 nM under setting [1] and 49 nM (input ligand: none).

Take “GUAGAACAUGAGGAUCACCCAUGUGAAGACGCAUGAGGAUAUAUACGUAAAUAGCAUACGAUAGAAGGCAUGAUAA [JR_SS001_Sub1703] (Eterna round: R96, puzzle: Same State 1)”: the “apparent KD of MS2 coat protein” value under setting [1] came to 40.6 nM.

For the sequence “GUAGCAUACCGAGGAUAUUCAUAAACAUGAGGAUCACCCAUGUAGGCCAGCAUUAGCUGGCCUUGGGAGAAGGCGGAAUGCUAC [Xeonanis - 20 Mod51] (Eterna round: R96, puzzle: Same State NG 2)”, the “apparent KD of MS2 coat protein” value reads like this: (input ligand: FMN 200 uM) 17.4 nM; under setting [1], 53.9 nM; (input ligand: none) 77.4 nM.

Turning to “GUAGCAUACCGAGGAUAUUCAUACAUGAGGAUCACCCAUGUUUAAUUAUAGGCCAAAAGGCCUUGGGAGAAGGCGGAAUGCUAC [Xeonanis - 20 Mod14] (Eterna round: R96, puzzle: Same State NG 2)”, the “apparent KD of MS2 coat protein” value by setting is: (input ligand: FMN 200 uM) 8.39 nM; under setting [1], 10.1 nM; (input ligand: none) 14.4 nM.

For “GUAGCAUACCGAGGAUAUUCAUACAUGAGGAUCACCCAUGUUUAGGCCAGCAUUAGCUGGCCUUGGGAGAAGGCGGAAUGCUAC [Xeonanis - 20 Mod54] (Eterna round: R96, puzzle: Same State NG 2)”, the “apparent KD of MS2 coat protein” value reads like this: (input ligand: FMN 200 uM) 17.7 nM; under setting [1], 13.5 nM; (input ligand: none) 22.6 nM.

For “GUAGCAUACCGAGGAUAUUCAUAUACAUGAGGAUCACCCAUGUUUAUAUAGGCCAAAAGGCCUUGGGAGAAGGCGGAAUGCUAC [Xeonanis - 20 Mod10] (Eterna round: R96, puzzle: Same State NG 2)”, the “apparent KD of MS2 coat protein” value stood at 12.1 nM (input ligand: FMN 200 uM), 7.88 nM under setting [1] and 13 nM (input ligand: none).

On to “GUAGCAUACCGAGGAUAUUCAUAUUAAAACAUGAGGAUCACCCAUGUUUAGGCCAAAAGGCCUUGGGAGAAGGCGGAAUGCUAC [Xeonanis - 20 Mod4] (Eterna round: R96, puzzle: Same State NG 2)”, for which the “apparent KD of MS2 coat protein” value is 19.2 nM (input ligand: FMN 200 uM), 17.9 nM under setting [1] and 25.1 nM (input ligand: none).

As to “GUAGCAUACCGAGGAUAUUCAUAUUAAAUACAUGAGGAUCACCCAUGUUAGGCCAAAAGGCCUUGGGAGAAGGCGGAAUGCUAC [Xeonanis - 20 Mod2] (Eterna round: R96, puzzle: Same State NG 2)”, the “apparent KD of MS2 coat protein” value runs as follows: (input ligand: FMN 200 uM) 20.9 nM; under setting [1], 33.6 nM; (input ligand: none) 63.5 nM.

Consider “GUAGCAUACCGAGGAUAUUCAUAUUACAUGAGGAUCACCCAUGUAAGGCCACAUUAGUGGCCUUGGGAGAAGGCGGAAUGCUAC [Xeonanis - 20 Mod42] (Eterna round: R96, puzzle: Same State NG 2)”, for which the “apparent KD of MS2 coat protein” value stood at 18.3 nM (input ligand: FMN 200 uM), 30 nM under setting [1] and 180 nM (input ligand: none).

As for “GUAGCAUACCGAGGAUAUUCAUAUUACAUGAGGAUCACCCAUGUGGCCAGCAUUAGCUGGCCUUGGGAGAAGGCGGAAUGCUAC [Xeonanis - 20 Mod49] (Eterna round: R96, puzzle: Same State NG 2)”, the “apparent KD of MS2 coat protein” value by setting is: (input ligand: FMN 200 uM) 110 nM; under setting [1], 623 nM; (input ligand: none) 1150 nM.

For the sequence “GUAGCAUACCGAGGAUAUUCAUUACAUGAGGAUCACCCAUGUUUUAUAGGUCGAUUACGACCUUGGGAGAAGGCGGAAUGCUAC [Xeonanis - 20 Mod30] (Eterna round: R96, puzzle: Same State NG 2)”, the “apparent KD of MS2 coat protein” value turned out to be 10.5 nM (input ligand: FMN 200 uM), 9.36 nM under setting [1] and 15.6 nM (input ligand: none).

Consider “GUAGCAUACCGAGGAUAUUCUACAUGAGGAUCACCCAUGUUUAAUAGGCCACAUUAGUGGCCUUGGGAGAAGGCGGAAUGCUAC [Xeonanis - 20 Mod47] (Eterna round: R96, puzzle: Same State NG 2)”, for which the “apparent KD of MS2 coat protein” value runs as follows: (input ligand: FMN 200 uM) 13.6 nM; under setting [1], 12.7 nM; (input ligand: none) 19.8 nM.

“GUAUAACAUGAGGAUCACCCAUGUCAACAAAGUCGAGGAUAUGGGCAUAGAUUAUAAGAACCAGAAGGCGAAUAUG [Mat - Same State 1 - Mod of UCT - D42] (puzzle: Same State 1)”: the “apparent KD of MS2 coat protein” value came out at 119 nM under setting [2], 219 nM under setting [3] and 666 nM under setting [4].

In the case of “GUCAGCGAUUGAGGAUAUCACGUCGUUUAGACGUGAGAAGGCGAUCAUAACAUGAGGAUCACCCAUGUAUUACAUGAAGCUGAC [SSNG1/5-A3] (Eterna round: R96, puzzle: Same State NG 1)”, the “apparent KD of MS2 coat protein” value reads like this: (input ligand: FMN 200 uM) 17.2 nM; under setting [1], 20.1 nM; (input ligand: none) 32.6 nM.

As to “GUCCAAAACACAGGAUAUCCCAGUCAUGAUCUGGGAGAAGGGUGGCCACAUGAGGAUCACCCAUGUGAAGUGCGAGAGGCACGA [Inerraat] (Eterna round: R96, puzzle: Same State NG 1)”, the “apparent KD of MS2 coat protein” value reads like this: (input ligand: FMN 200 uM) 258 nM; under setting [1], 827 nM; (input ligand: none) 629 nM.

Regarding “GUGAGAUGUUCAGGAUAUUUCAGGAUAGUUAAUCCAAGGCCAUCACAUGAGGAUCACCCAUGUCGAGAGAAGGGAAUUCUCAGG [Eternabot solution 43] (Eterna round: R96, puzzle: Same State NG 2)”, the “apparent KD of MS2 coat protein” value reads like this: (input ligand: FMN 200 uM) 378 nM; under setting [1], 331 nM; (input ligand: none) 433 nM.

In the case of “GUGCUCGUGUGAGGAUAUGCUUCCGUUUCGGCUGCAGAAGGUACUAUUAUACAUGAGGAUCACCCAUGUCUCUUUUGUUCGGUG [salish99_SSNG1_r04_911] (Eterna round: R96, puzzle: Same State NG 1)”, the “apparent KD of MS2 coat protein” value is, setting by setting: (input ligand: FMN 200 uM) 66.9 nM; under setting [1], 38.2 nM; (input ligand: none) 58.8 nM.

On to “GUGGCCUAGGCACAGGAUAUGUUUCUCGUAACAUGAGGAUCACCCAUGUGCCUUUGAGAUUUUAUGCAGAAGGGUGCACGCCACG [JL Atiinbe mod 04] (Eterna round: R96, puzzle: Same State 2)”, for which the “apparent KD of MS2 coat protein” value came to 21.1 nM (input ligand: FMN 200 uM), 214 nM under setting [1] and 425 nM (input ligand: none).

For “GUGGCCUAGGCACAGGAUAUGUUUCUCGUAACAUGAGGAUCACCCAUGUGCCUUUGAGAUUUUAUGCAGAAGGGUGCACGCCACG [JL Atiinbe mod 04] (puzzle: Same State 2)”, the “apparent KD of MS2 coat protein” value runs as follows: under setting [2], 20.6 nM; under setting [3], 273 nM; under setting [4], 491 nM.

Turning to “GUGGUCAGACAUGAGGAUCACCCAUGUGGAAUAAAUAACAGACAGGAUAUUUAAUAUAGGAUAUAGAAGAAGGGUCGAUUGGUG (Eterna round: R96, puzzle: Same State NG 3)”, the “apparent KD of MS2 coat protein” value (input ligand: FMN 200 uM) is 117 nM, the “apparent KD of MS2 coat protein” value under setting [1] came to 87.5 nM and the “apparent KD of MS2 coat protein” value (input ligand: none) is 103 nM.

For the sequence “GUGGUCAGACAUGAGGAUCACCCAUGUGGAAUAAAUAACGGACAGGAUAUGCAAUAUAGGAUAUAGUAGAAGGGUUGAUUGGUG (Eterna round: R96, puzzle: Same State NG 3)”, under setting [1], the “apparent KD of MS2 coat protein” value stood at 49.3 nM.

For “GUGGUCAGACAUGAGGAUCACCCAUGUGGAAUAAAUAACGGUGAGGAUAUGCAAUAUAGGAUAUAGUAGAAGGCAUGAUUGGUG (Eterna round: R96, puzzle: Same State NG 3)”, the “apparent KD of MS2 coat protein” value is 164 nM (input ligand: FMN 200 uM), 104 nM under setting [1] and 132 nM (input ligand: none).

For the sequence “GUGGUCAGACAUGAGGAUCACCCAUGUGGAAUAAAUAAGGAACAGGAUAUCUAAUAUAGGAUAUAAGAGAAGGGUUGGUUGGUG (Eterna round: R96, puzzle: Same State NG 3)”, the “apparent KD of MS2 coat protein” value under setting [1] worked out at 61.9 nM.

Consider “GUGGUCAGACAUGAGGAUCACCCAUGUGGAAUAAAUAAGGUUUAGGAUAUGGAAUAUAGGAUAUACCAGAAGGGAGGGUUGGUG (Eterna round: R96, puzzle: Same State NG 3)”, for which the “apparent KD of MS2 coat protein” value under setting [1] stood at 90.4 nM.

Regarding “GUGGUGAAUUAAGGAUAUCGAGUCAAGAUGUUAAACAUGAGGAUCACCCAUGUGGGUUGCGGUAUCGAGAAGGUAAUUUACGGG [salish99_SSNG2_r04_506] (Eterna round: R96, puzzle: Same State NG 2)”, the “apparent KD of MS2 coat protein” value runs as follows: (input ligand: FMN 200 uM) 17.3 nM; under setting [1], 20.1 nM; (input ligand: none) 30.3 nM.

Consider “GUGUGUUGCGGGCAGGAUAUGUACUUGAGUACAUGAGGAUCACCCAUGUGCGGGUGUUUCACCCGACAGAAGGGCCUAUCGCGAC [JL-ss2-3.25 ViennaUCT mod] (Eterna round: R96, puzzle: Same State 2)”, for which the “apparent KD of MS2 coat protein” value by setting is: (input ligand: FMN 200 uM) 252 nM; under setting [1], 457 nM; (input ligand: none) 1070 nM.
